This assay deals with recombinant soluble homotrimeric HA, A/common magpie/Hong Kong/5052/07 (H5N1) (influenza A virus A/common magpie/Hong …). Description: microarray, trimeric HA, transfection supernatant.

B1: TCN-556 (5089_K12) (antibody, V domains shown)
VH: QVQLVQSGAEVKKPGASVKVSCKASGYTFIGYDMHWVRQAPGQGLEWMGWINAKRGGTNYAQKFQGRVTMTRDTSISTAYMELNSLRSDDTAVYYCARGVGSRTTIFGVLNPEFDYWGQGTLVTVSS
VL: QSALTQPPSASGSPGQSVTISCTGSSSDVGGYDYVSWYQQHPGKAPKLLIYEVTKRPSGVPDRFSGSKSGNTASLTVSGLQAEDEADYYCSSYAGNYNHVFGPGTKVTVL
On to B1, for which the “Trimeric HA Binding RLU” value came out at 20100 RLU.

B2: TCN-560 (5084_P10) (antibody, V domains shown)
VH: EVQLVESGGGLVQPGGSLRLSCAASGFIFRNYWMSWVRQAPGKGLEWVANIKQDGREKYYVDSLRGRVNISRDNAENSLYLHMNSLRVEDTAVYFCARARMVVVTGDGFDVWGHGTMVTVSS
VL: DIQMTQSPSSLSASVGDRVTITCRASQNIKRYFNWYQQKPGKAPKLLIYAASNLENGVPSRFSGSGSGTDFTLTISSLQPEDFATYYCQQSFSKSWTFGQGTNVDIK
Turning to B2, the “Trimeric HA Binding RLU” value came out at 30500 RLU.

Source of the values: patent US20150104459A1 (published 2015).
